Test results reported in patent US7820795B2, “Lactobacillus fermentum N-desoxyribosyl transferases and the use thereof for enzymatic synthesis of 2′, 3′—didesoxynucleosides and 2′,3′- didehydro-2′,3′- didesoxynucleosides” (Institut Pasteur, priority 2004, dated 2010).

Tests used:
[1] = molecular target: T1, Lactobacillus fermentum N-deoxyribosyl transferase (NTD, LF), native/wild type, SEQ ID No. 2 (Limosilactobacillus fermentum, UniProt Q6YNI5); experiment: Enzymatic activity tests (dT+C, ddT+C and d4T+C reactions), native enzyme LF; assay type: biochemical; settings: deoxyribosyl donor + C (cytosine)
T1 construct: crude extract or purified
T1 sequence (Q6YNI5 1-168): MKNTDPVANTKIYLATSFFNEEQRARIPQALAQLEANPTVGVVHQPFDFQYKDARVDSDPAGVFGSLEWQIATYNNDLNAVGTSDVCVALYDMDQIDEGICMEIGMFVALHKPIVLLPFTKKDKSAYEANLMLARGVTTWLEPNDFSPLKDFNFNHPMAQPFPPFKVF
Experimental: (§1) 50 μl of enzymatic extract is added to 200 μl of 100 mM citrate buffer, pH 6.44, in the presence of 3 mM ddU or dU final and of 1 mM C final for the strain PAK9, the whole is incubated at 37° C. The progress of the reaction is monitored by TLC (silica; eluent: MeOH—CH2Cl2 (20/80)). […] The disappearance of the substrates and the formation of the products were also quantified by HPLC analysis. The different products are separated by analytical HPLC with a reversed-phase column (100-5C18) using a flow rate of 1 ml/min and a linear gradient of 5-25% CH3CN in a 10 mM triethyl ammonium acetate buffer at pH 7.5 for 20 minutes.
(§2) were used as primer in an amplification reaction under standard conditions using the ntd gene of L. fermentum cloned in pSU19 (pLF6) as DNA matrix. The amplification product was digested by the restriction enzymes Nde1 and BamH1 for 2 hours at 37° C., purified on agarose gel and inserted into the plasmid pET24a digested by the same enzymes then the ligation mixture is used to transform the strain β 2033. The plasmid DNA from the colonies was prepared and digested by the enzymes Nde1 and BamH1. […]
(§3) The cells are then centrifuged for 15′ at 4000 rpm at 4° C., washed in 50 ml of phosphate buffer then the pellet obtained after centrifugation is preserved overnight at −20° C. […] The fractions are then analyzed by SDS-PAGE gel and the enzymatic activity determined. […] The protein concentration is determined by measuring the OD at 280 nm. […]
(§4) The enzymatic activities of the native and mutant N-deoxyribosyl transferases of L. leichmannii (LL and LL G9S) and of L. fermentum (LF and LFA15T) in the exchange reactions dT+C ? dC+T, ddT+C ? ddC+T and d4T+C ? d4C+T were evaluated starting from crude extracts or purified proteins.
(§5) These different values were measured according to the protocol described in the literature [P A Kaminski (2002) “Functional cloning, heterologous expression and purification of two different N-deoxyribosyl transferases from Lactobacillus helveticus” J. Biol. Chem; vol. […]

[2] = molecular target: T2, Lactobacillus fermentum N-deoxyribosyl transferase (NTD) variant LFA15T, mutation A15T, SEQ ID No. 4 (Limosilactobacillus fermentum, UniProt Q6YNI5, A15T); experiment: Enzymatic activity tests (dT+C, ddT+C and d4T+C reactions), mutated enzyme LFA15T; assay type: biochemical; settings: mutant LFA15T; deoxyribosyl donor + C (cytosine)
T2 construct: crude extract or purified
T2 sequence (Q6YNI5 1-168 A15T): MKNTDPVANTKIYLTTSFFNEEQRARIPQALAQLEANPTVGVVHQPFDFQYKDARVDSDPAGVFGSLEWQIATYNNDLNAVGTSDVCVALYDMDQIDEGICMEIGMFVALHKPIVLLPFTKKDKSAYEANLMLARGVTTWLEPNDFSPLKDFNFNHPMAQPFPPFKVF
Experimental: (§6) The sequencing of the plasmids present in the selected transformants of PAK 9 made it possible to identify a mutation in the sequence (ntd) having the effect of substituting a residue T for the residue A in position 15 in the corresponding protein sequence (SEQ ID No. 2) (mutation called A15T).
50 μl of enzymatic extract is added to 200 μl of 100 mM citrate buffer, pH 6.44, in the presence of 3 mM ddU or dU final and of 1 mM C final for the strain PAK9, the whole is incubated at 37° C. The progress of the reaction is monitored by TLC (silica; eluent: MeOH—CH2Cl2 (20/80)). […] The disappearance of the substrates and the formation of the products were also quantified by HPLC analysis. […]
as §3
The enzymatic activities of the native and mutant N-deoxyribosyl transferases of L. leichmannii (LL and LL G9S) and of L. fermentum (LF and LFA15T) in the exchange reactions dT+C ? dC+T, ddT+C ? ddC+T and d4T+C ? d4C+T were evaluated starting from crude extracts or purified proteins. […]

[3] = exchange reaction d4T + C (transfer of didehydroribose), specific activity of N-deoxyribosyl transferases; assay type: biochemical; settings: for specific activity, d4T + C: relative, 100% = specific activity of NTD of L. leichmannii (LL) in dT + C, crude extracts or purified proteins
Experimental: (§7) The cells are then centrifuged at 4000 rpm for 30 minutes at 4° C., the pellet is resuspended in 10 ml of phosphate buffer (Na2HP04+NaH2PO4) at 50 mM (pH=7.5). After centrifugation, the pellet is resuspended in 1 ml of the same buffer. The cells, preserved in ice, are then subjected to three cycles of 30 s of sonication and 30 s of rest. After centrifugation at 12000 rpm for 2×15 minutes at 4° C., the supernatants are recovered and stored at −20° C.
as §1
(§8) The cells are then centrifuged for 15′ at 4000 rpm at 4° C., washed in 50 ml of phosphate buffer then the pellet obtained after centrifugation is preserved overnight at −20° C. The bacterial pellet resuspended in 20 ml of phosphate buffer is then lysed by passage through a French press at 14000 psi. The lysate is centrifuged for 90′ at 50,000 rpm. The supernatant containing the soluble proteins is then precipitated with ammonium sulphate (40% saturation). […] The fractions are then analyzed by SDS-PAGE gel and the enzymatic activity determined. […] The protein concentration is determined by measuring the OD at 280 nm. […]
as §4

[4] = substrate: Cc1cn([C@H]2C=C[C@@H](CO)O2)c(=O)[nH]c1=O; experiment: Enzymatic activity tests (dT+C, ddT+C and d4T+C reactions), native enzyme LF; assay type: biochemical, Lactobacillus fermentum; settings: other: native LF; deoxyribosyl donor + C (cytosine); 37.0 °C
Experimental: as §1
(§9) were used as primer in an amplification reaction under standard conditions using the ntd gene of L. fermentum cloned in pSU19 (pLF6) as DNA matrix. The amplification product was digested by the restriction enzymes Nde1 and BamH1 for 2 hours at 37° C., purified on agarose gel and inserted into the plasmid pET24a digested by the same enzymes then the ligation mixture is used to transform the strain β 2033. The plasmid DNA from the colonies was prepared and digested by the enzymes Nde1 and BamH1. Those, the sequence of which was correct, were used to transform the strain BL21 (DE3)/plysS (Novagen). The plasmid DNA of the mutant pSU19NLFA15T selected previously was prepared then digested by the enzymes Nde1 and BamH1. The corresponding fragment Nde1-BamH1 was then inserted into the plasmid pET24a digested by the same enzymes in order to produce the expression plasmid pETLFA15T useful to the expression of the mutated protein. A strain of E. coli transformed using the plasmid pETLFA15T was deposited at the CNCM (INSTITUT PASTEUR, 25 rue du Docteur Roux, F-75724 PARIS Cedex 15) on 22 Mar. 2004 under accession number I-3192. The overproduction of the two N-deoxyribosyl transferases, native and mutated, was obtained from cultures of this strain in 500 ml of LB medium supplemented with Km and Cm. These cultures were induced at an OD600=0.6 by the addition of IPTG (0.4 mM), the incubation being continued for 2 hours 30 minutes at 37° C.
(§10) The cells are then centrifuged for 15′ at 4000 rpm at 4° C., washed in 50 ml of phosphate buffer then the pellet obtained after centrifugation is preserved overnight at −20° C. The bacterial pellet resuspended in 20 ml of phosphate buffer is then lysed by passage through a French press at 14000 psi. The lysate is centrifuged for 90′ at 50,000 rpm. The supernatant containing the soluble proteins is then precipitated with ammonium sulphate (40% saturation). The precipitate obtained after centrifugation at 13900 rpm (20,000 g) for 30′ at 4° C. is resuspended in 1 ml of 100 mM phosphate buffer, pH 7.5, 1.5 M NaCl, then deposited on a Sephacryl S200 gel filtration column (Amersham-Pharmacia). The fractions are then analyzed by SDS-PAGE gel and the enzymatic activity determined. […] The protein concentration is determined by measuring the OD at 280 nm.
(§11) The measurement of the enzymatic activities is carried out as described in paragraph 4.2.
as §4
(§12) These different values were measured according to the protocol described in the literature [P A Kaminski (2002) “Functional cloning, heterologous expression and purification of two different N-deoxyribosyl transferases from Lactobacillus helveticus” J. Biol. Chem; vol. 277; 14400-14407]. […] The activities are increased respectively by 60% and 54%.

[5] = substrate: Cc1cn([C@H]2CC[C@@H](CO)O2)c(=O)[nH]c1=O; experiment: as above; assay type: biochemical, Lactobacillus fermentum; settings: other: native LF; deoxyribosyl donor + C (cytosine); 37.0 °C
Experimental: as §1, §9, §10, §11, §4, §12

[6] = substrate: Cc1cn([C@H]2C[C@H](O)[C@@H](CO)O2)c(=O)[nH]c1=O; experiment: as above; assay type: biochemical, Lactobacillus fermentum; settings: other: native LF; deoxyribosyl donor + C (cytosine); 37.0 °C
Experimental: as §1, §9, §10, §11, §4, §12

[7] = exchange reaction ddT + C (transfer of dideoxyribose), specific activity of N-deoxyribosyl transferases; assay type: biochemical; settings: for specific activity, ddT + C: relative, 100% = specific activity of NTD of L. leichmannii (LL) in dT + C, crude extracts or purified proteins
Experimental: as §7, §1, §8, §4

[8] = exchange reaction dT + C (transfer of deoxyribose), specific activity of N-deoxyribosyl transferases; assay type: biochemical; settings: for specific activity, dT + C: relative, 100% = specific activity of NTD of L. leichmannii (LL) in dT + C, crude extracts or purified proteins
Experimental: as §7, §1, §8, §4

[9] = enzymatic activity test (kinetic constants), d4T+C reaction; assay type: biochemical
Experimental: as §12

[10] = enzymatic activity test (kinetic constants), ddT+C reaction; assay type: biochemical
Experimental: as §12

[11] = substrate: Cc1cn([C@H]2CC[C@@H](CO)O2)c(=O)[nH]c1=O; experiment: Enzymatic activity tests (dT+C, ddT+C and d4T+C reactions), mutated enzyme LFA15T; assay type: biochemical, Lactobacillus fermentum; settings: other: mutant LFA15T; deoxyribosyl donor + C (cytosine); 37.0 °C
Experimental: as §6, §1
as §2, with “BamH1. Those, the sequence of which was correct, were used to transform the strain BL21 (DE3)/plysS (Novagen). The plasmid DNA of the mutant pSU19NLFA15T selected previously was prepared then digested by the enzymes Nde1 and BamH1. The corresponding fragment Nde1-BamH1 was then inserted into the plasmid pET24a digested by the same enzymes in order to produce the expression plasmid pETLFA15T useful to the expression of the mutated protein.” for “BamH1.”
as §3, §4, §5

[12] = substrate: Cc1cn([C@H]2C[C@H](O)[C@@H](CO)O2)c(=O)[nH]c1=O; experiment: as above; assay type: biochemical, Lactobacillus fermentum; settings: other: mutant LFA15T; deoxyribosyl donor + C (cytosine); 37.0 °C
Experimental: as §6, §1
as §2, with “BamH1. Those, the sequence of which was correct, were used to transform the strain BL21 (DE3)/plysS (Novagen). The plasmid DNA of the mutant pSU19NLFA15T selected previously was prepared then digested by the enzymes Nde1 and BamH1. The corresponding fragment Nde1-BamH1 was then inserted into the plasmid pET24a digested by the same enzymes in order to produce the expression plasmid pETLFA15T useful to the expression of the mutated protein.” for “BamH1.”
as §3, §4, §5

[13] = catalytic effectiveness Kcat/Km
[14] = mutated enzyme versus native enzyme
[15] = mutant LFA15T versus native enzyme LF

In the case of `Cc1cn([C@H]2CC[C@@H](CO)O2)c(=O)[nH]c1=O` [ddT], the Kcat [1] is reported as 0.038 µmol/s/µg and the Kcat [2] is reported as 0.156 µmol/s/µg.

`Cc1cn([C@H]2C=C[C@@H](CO)O2)c(=O)[nH]c1=O` [d4T, reference compound] gave a Kcat [1] of 0.56 µmol/s/µg.

B1: Lactobacillus fermentum N-deoxyribosyl transferase (NTD, LF), native/wild type, SEQ ID No. 2 (Limosilactobacillus fermentum) (protein)
chain: MKNTDPVANTKIYLATSFFNEEQRARIPQALAQLEANPTVGVVHQPFDFQYKDARVDSDPAGVFGSLEWQIATYNNDLNAVGTSDVCVALYDMDQIDEGICMEIGMFVALHKPIVLLPFTKKDKSAYEANLMLARGVTTWLEPNDFSPLKDFNFNHPMAQPFPPFKVF
notes: crude extract or purified
For B1, the “specific activity, d4T + C” value [3] was 2.1%, the Km [4] was 1250 µM and the Vmax [4] was 24 µmol/s. For the same molecule, the Km [5] was 80 µM, the Vmax [5] was 5.7 µmol/s and the Km [6] was 124 µM. The Vmax [6] was 6.65 µmol/s, the “specific activity, ddT + C” value [7] was 0.9% and the “specific activity, dT + C” value [8] was 76.5%.

B2: Lactobacillus fermentum N-deoxyribosyl transferase (NTD) variant LFA15T, mutation A15T, SEQ ID No. 4 (Limosilactobacillus fermentum; A15T) (protein)
chain: MKNTDPVANTKIYLTTSFFNEEQRARIPQALAQLEANPTVGVVHQPFDFQYKDARVDSDPAGVFGSLEWQIATYNNDLNAVGTSDVCVALYDMDQIDEGICMEIGMFVALHKPIVLLPFTKKDKSAYEANLMLARGVTTWLEPNDFSPLKDFNFNHPMAQPFPPFKVF
notes: crude extract or purified
In the case of B2, the “times more effective than native enzyme LF, d4T+X exchange” value [9, 13] is reported as 7.5 times, the “increase of catalytic activity on d4T” value [9, 14] is reported as 60% and the “factor by which activity is increased, transfer of didehydroribose” value [3, 15] is reported as 35. The “specific activity, d4T + C” value [3] was 73.5%, the “times more effective than native enzyme LF, ddT+X exchange” value [10, 13] was 60 times and the “increase of catalytic activity on ddT” value [10, 14] was 54%. For the same molecule, the “factor by which activity is increased, transfer of dideoxyribose” value [7, 15] was 3, the “specific activity, ddT + C” value [7] was 2.5% and the Km [11] was 53 µM. It also gave a Vmax [11] of 7.8 µmol/s, a Km [12] of 371 µM and a Vmax [12] of 9.7 µmol/s. For the same molecule, the “factor by which activity is reduced, transfer of deoxyribose” value [8, 15] was 7 and the “specific activity, dT + C” value [8] was 10.7%.
